# Test results as given in patent US20240182590A1, “METHOD OF TREATMENT OF PATIENTS HAVING REDUCED SENSITIVITY TO A BCL-2 INHIBITOR” (argenx BV, priority 2020, published 2024).
# Entries after “also recorded” stand apart in the source; their conditions may differ.
# T1: interaction of CD70 with its receptor CD27 (Homo sapiens, UniProt P32970)
# T1 sequence (P32970 1-193): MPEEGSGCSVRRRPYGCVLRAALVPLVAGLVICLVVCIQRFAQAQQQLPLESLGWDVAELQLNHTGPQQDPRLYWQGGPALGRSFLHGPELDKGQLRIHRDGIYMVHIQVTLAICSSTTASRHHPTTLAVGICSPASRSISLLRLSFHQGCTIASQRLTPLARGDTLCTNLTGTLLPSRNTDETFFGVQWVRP
# Legend:
# [1] = test system: ROS-low LSCs from mono-AML and prim-AML; conditions: versus ROS-low LSCs from primitive AML (Pei et al. 2020); cited from earlier work
# [2] = cited from earlier work
# [3] = test system: total mononuclear cell fraction of M4/5 samples; conditions: M4/5 AML samples, ex vivo; cited from earlier work
# [4] = test system: CD70 positive monocytic AML cells; experiment: Cusatuzumab-mediated NK-dependent ADCC on primary AML bone marrow samples; assay type: cell-based, human; conditions: 10 μg/ml, 24 hours
# Source text: FIG. 7B is a bar graph showing the effect on monocytic and primitive AML cells. following administration of cusatuzumab, 41D12 FcDead antibody and a vehicle control. […] One-way ANOVA test was used to determine significance. *p<0.05.
# FIG. 7C is a bar graph showing the effect on monocytic AML cells following administration of cusatuzumab, 41D12 FcDead antibody and a vehicle control. […] One-way ANOVA test was used to determine significance. ***p<0.001.
# Cusatuzumab is an afucosylated anti-human CD70 antibody with enhanced properties to mediate NK-dependent antibody-dependent cellular cytotoxicity (ADCC) (Silence et al. 2014). VEN+AZA resistant CD70 positive monocytic AML (CD45^bright/SSC^high/CD38^+/CD34^−/CD33^+/CD11b^+/CD70^+) and mixed phenotype samples containing CD70 positive monocytic cells (CD45^bright/SSC^high/CD38^+/CD34^−/CD33^+/CD11b^+/CD70^+) and CD70 negative VEN+AZA sensitive primitive cells (CD45^medium/SSC^low/CD34^−/CD33^+/CD11b^+/CD70^− containing both CD38^+ and CD38^− populations) (FIG. 7A) were tested for sensitivity to cusatuzumab-mediated ADCC. Both types of primary bone marrow samples were treated with cusatuzumab at 10 μg/ml concentration and co-incubated with human NK cells isolated by a negative selection from healthy donor PBMCs. NK cells were added in 1:5 and 1:15 target to effector cells (T:E) ratio to monocytic AML and mixed phenotype bone marrow samples, respectively. Cells were co-cultured for 24 hours at 37° C. in cell culture incubator. Flow cytometry analysis was performed in order to measure number of primitive and monocytic AML cells and estimate the level of ADCC for particular sample. […] This supports the specificity of cusatuzumab-mediated effects in the targeting of CD70-positive VEN+AZA resistant monocytic AML cells.
# [5] = test system: LSCs from VEN+AZA resistant monocytic AML bone marrow samples; experiment: Colony forming unit (CFU) assay after incubation with antibody and NK cells; assay type: cell-based, human; conditions: 10 μg/ml antibody, NK cells 1:5 T:E, 24-hour incubation, then 14 days in methocult medium
# Description: FIG. 9 is a bar graph showing the effect of antibody treatment on leukemic stem cells from CD70 positive VEN+AZA resistant monocytic AML bone marrow samples. Data is normalized to the no antibody control colony forming units (CFU) for isotype control, blocking anti-CD70 antibody 41D12 FcDead and cusatuzumab. VEN+AZA resistant monocytic AML bone marrow samples were incubated with NK cells (1:5 T:E ratio) in the presence of antibodies (10 μg/ml) and then cultured in CFU medium in order to determine if LSCs were also efficiently targeted by cusatuzumab-mediated NK-dependent ADCC. […] One-way ANOVA test was used to determine significance. ****p<0.0001.
# In order to test if CD70 positive LSCs from VEN+AZA resistant monocytic AML bone marrow samples could be targeted by cusatuzumab, bone marrow samples coming from VEN+AZA resistant samples were first incubated with cusatuzumab (10 μg/ml) and NK cells isolated from PBMCs from healthy donor (1:5 T:E ratio). After a 24-hour incubation samples were moved to methocult medium and further cultured in order to check if LSCs were targeted by cusatuzumab-mediated ADCC. No treatment, human IgG1 isotype control and blocking 41D12 FcDead antibody were used as negative controls. Cells were incubated in cell culture incubator at 37° C. for 14 days and colony forming units (CFU) were estimated by counting growing colonies.
# [6] = test system: VEN+AZA resistant monocytic AML cells; experiment: Patient-derived xenograft mouse model, monocytic AML cells in mouse bone marrow; assay type: in vivo, NSGS mice; conditions: 3 doses every 3 days, cusatuzumab 10 mg/kg, Ven 100 mg/kg + Aza 3 mg/kg
# Description: FIG. 10 is a bar graph showing the efficacy of anti-CD70 antibody treatment in the presence of NK cells in a patient-derived xenograft mouse model. NSGS mice were engrafted with VEN+AZA resistant monocytic AML bone marrow sample. When engraftment level in bone marrow reached around 25% of leukemic cells, animals were treated 3 times every 3 days with cusatuzumab or VEN+AZA with or without a single infusion of 1.5×10^6 NK cells. After 9 days animals were sacrificed, bone marrow from femur isolated and the number of malignant monocytic cells in bone marrow was determined. […] Mann-Whitney test was used to determine significance. *p<0.05, **p<0.01, ***p<0.001, ****p<0.0001.
# Patient samples injected in NSGS mice engraft in mouse bone marrow. The efficiency of anti-leukemic compounds can be measured stringently using therapeutic approaches after full engraftment of patient-derived samples and by determination of the reduction of malignant cells in mouse bone marrow. 2×10^6 cells from bone marrow from VEN+AZA resistant monocytic AML per NSGS mouse were engrafted for 42 days. One cohort of animals was treated with vehicle, combination of 100 mg/kg Ven and 3 mg/kg Aza or 10 mg/kg cusatuzumab. […] One day after the third dose animals were sacrificed and bone marrow from femur was isolated and samples were analysed by flow cytometry to determine the number of monocytic AML cells. […]
# [7] = target: T1, interaction of CD70 with its receptor CD27; conditions: Silence et al. (2014); cited from earlier work
# [8] = test system: CD70-induced CD27 signaling; conditions: Silence et al. (2014); cited from earlier work
# [9] = test system: leukemic stem cells (LSCs) in AML patients; conditions: in combination with azacitidine; see WO2018/229303; cited from earlier work
# [10] = test system: CD70-expressing tumor cells; conditions: cited from earlier work
molecule,measurement,setting,value
"CC1(C)CCC(CN2CCN(c3ccc(C(=O)NS(=O)(=O)c4ccc(NCC5CCOCC5)c([N+](=O)[O-])c4)c(Oc4cnc5[nH]ccc5c4)c3)CC2)=C(c2ccc(Cl)cc2)C1 [venetoclax, 4-(4-{[2-(4-chlorophenyl)-4,4dimethylcyclohex-1-en-1-yl]methyl}piperazin-1-yl)-N-({3-nitro-4-[(tetrahydro-2H-pyran-4ylmethyl)amino]phenyl}sulfonyl)-2-(1H-pyrrolo[2,3-b]pyridin-5-yloxy)benzamide]",resistance of ROS-low LSCs from monocytic AML,[1],increased resistance
same,aqueous solubility,[2],very low
same,venetoclax sensitivity,[3],decreased
"cusatuzumab: monoclonal IgG1 anti-CD70 antibody, afucosylated for enhanced ADCC; CDR, VH and VL sequences in Table 1 (antibody, V domains shown) VH: EVQLVESGGGLVQPGGSLRLSCAASGFTFSVYYMNWVRQAPGKGLEWVSDINNEGGTTYYADSVKGRFTISRDNSKNSLYLQMNSLRAEDTAVYYCARDAGYSNHVPIFDSWGQGTLVTVSS VL: QAVVTQEPSLTVSPGGTVTLTCGLKSGSVTSDNFPTWYQQTPGQAPRLLIYNTNTRHSGVPDRFSGSILGNKAALTITGAQADDEAEYFCALFISNPSVEFGGGTQLTVLG",NK cell-dependent ADCC of monocytic cells,"[4]; VEN+AZA resistant monocytic AML bone marrow sample, NK cells 1:5 T:E",significantly targeted
same,NK cell-dependent ADCC of monocytic cells,"[4]; VEN+AZA resistant monocytic AML bone marrow sample, NK cells 1:5 T:E, listed as Cusatuzumab",significantly mediate NK-dependent cell killing
same,NK cell-dependent ADCC of monocytic cells,"[4]; mixed phenotype AML bone marrow sample, NK cells 1:15 T:E",significantly targeted
same,NK cell-dependent ADCC of monocytic cells,"[4]; mixed phenotype AML bone marrow sample, NK cells 1:15 T:E, listed as Cusatuzumab",significantly mediate NK-dependent cell killing
same,number of growing colonies (CFU) versus no treatment control,[5],clear drop in the number of growing colonies; also recorded: significantly reduce the number of LSCs
same,malignant human CD45+CD11b+CD117− cells in mouse bone marrow,[6]; in the absence of human NK cells,no significant effect
same,malignant human CD45+CD11b+CD117− cells in mouse bone marrow,[6]; in the presence of human NK cells (1.5×10^6),significant reduction; also recorded: significantly reduced levels of monocytic AML cells
same,interaction of CD70 with its receptor CD27,[7],inhibit the interaction of CD70 with its receptor CD27
same,CD70-induced CD27 signaling,[8],inhibit CD70-induced CD27 signaling
same,leukemic stem cells (LSCs) in AML patients,[9],efficiently reduced
same,antibody dependent cellular phagocytosis (ADCP) of CD70-expressing cells,[10]; Silence et al. (2014),increase antibody dependent cellular phagocytosis (ADCP)
same,lysis of CD70-expressing tumor cells via antibody dependent cell-mediated cytotoxicity (ADCC),[10],lyse CD70-expressing tumor cells
same,lysis of CD70-expressing tumor cells via complement dependent cytotoxicity (CDC),[10],lyse CD70-expressing tumor cells
